Laboratory results reported in paper PMC3892207 (Journal of the American Chemical Society, 2013).
Where a chain is given by its changes, count along the chain named. Names and notes keep the numbering of the source.

B1: CP-Ser (αβ heterodimer of S100A8(C42S) and S100A9(C3S)) (complex, human)
chain 1: MLTELEKALNSIIDVYHKYSLIKGNFHAVYRDDLKKLLETESPQYIRKKGADVWFKELDINTDGAVNFQEFLILVIKMGVAAHKKSHEESHKE
chain 2: MTSKMSQLERNIETIINTFHQYSVKLGHPDTLNQGEFKELVRKDLQNFLKKENKNEKVIEHIMEDLDTNADKQLSFEEFIMLMARLTWASHEKMHEGDEGPGHHHKPGLGEGTP
B2: CP-Ser-Δ101 (αβ heterodimer) (complex, human)
chain 1: B1 chain 1
chain 2: MTSKMSQLERNIETIINTFHQYSVKLGHPDTLNQGEFKELVRKDLQNFLKKENKNEKVIEHIMEDLDTNADKQLSFEEFIMLMARLTWASHEKMHEGDEGP
B3: CP-Ser-mT (αβ heterodimer) (complex, human | mouse)
chain 1: B1 chain 1
chain 2: MTSKMSQLERNIETIINTFHQYSVKLGHPDTLNQGEFKELVRKDLQNFLKKENKNEKVIEHIMEDLDTNADKQLSFEEFIMLMARLTWASHEKMHENNPRGHGHSHGKGCGK
B4: CP-Ser(E96A) (αβ heterodimer) (complex, human)
chain 1: B1 chain 1
chain 2: B1 chain 2 with E96A
B5: CP-Ser-AAA(K106H) (αβ heterodimer) (complex, human)
chain 1: B1 chain 1
chain 2: B1 chain 2 with H103A, H104A, H105A, K106H
B6: CP-Ser(E99A) (αβ heterodimer) (complex, human)
chain 1: B1 chain 1
chain 2: B1 chain 2 with E99A
B7: CP-Ser-AHA(K106H) (αβ heterodimer) (complex, human)
chain 1: B1 chain 1
chain 2: B1 chain 2 with H103A, H105A, K106H
B8: CP-Ser-AAA(L109H)(E111H) (αβ heterodimer) (complex, human)
chain 1: B1 chain 1
chain 2: B1 chain 2 with H103A, H104A, H105A, L109H, E111H
B9: CP-Ser(H103A) (αβ heterodimer) (complex, human)
chain 1: B1 chain 1
chain 2: B1 chain 2 with H103A
B10: CP-Ser(D98A) (αβ heterodimer) (complex, human)
chain 1: B1 chain 1
chain 2: B1 chain 2 with D98A
B11: CP-Ser(H105A) (αβ heterodimer) (complex, human)
chain 1: B1 chain 1
chain 2: B1 chain 2 with H105A
B12: CP-Ser-AAA (αβ heterodimer) (complex, human)
chain 1: B1 chain 1
chain 2: B1 chain 2 with H103A, H104A, H105A
B13: CP-Ser-AHA (αβ heterodimer) (complex, human)
chain 1: B1 chain 1
chain 2: B1 chain 2 with H103A, H105A
B14: CP-Ser(K106A) (αβ heterodimer) (complex, human)
chain 1: B1 chain 1
chain 2: B1 chain 2 with K106A
B15: CP-Ser(H104A) (αβ heterodimer) (complex, human)
chain 1: B1 chain 1
chain 2: B1 chain 2 with H104A
B16: CP-Ser(E111A) (αβ heterodimer) (complex, human)
chain 1: B1 chain 1
chain 2: B1 chain 2 with E111A
B17: CP-Ser-AAE (αβ heterodimer) (complex, human)
chain 1: B1 chain 1
chain 2: B1 chain 2 with H103A, H104A, H105E

Biological target: the molecule itself
Assay: SEC

Binding result, binds:
B1
B2
B3
B4
B5
B6
B7
B8
B9
B10
B11
B12
B13
B14
B15
B16
B17
